According to US20050282743A1, “Molecular interactions in cells” (Arbor Vita Corporation, priority 2001, published 2005):
One block for each substance: values may come before it. Ends that are not written are not given here. * marks the point of attachment. Biotin = O=C1N[C@H]2[C@H](CS[C@H]2CCCCC(=O)*)N1

What was measured:
Experiment in all cases: G' assay (10 uM PL peptide), results of TABLE 7 and TABLE 12
Format in all cases: binding
[1] = biological target: T1, PDZ protein (GST-PDZ fusion) (Homo sapiens, UniProt Q9UDY2); settings: PDZ ZO-2, PDZ Domain 2
T1 construct: made in house; host or cells: E. coli (DH5alpha, BL21 or JM109)
T1 sequence (Q9UDY2 1-1190): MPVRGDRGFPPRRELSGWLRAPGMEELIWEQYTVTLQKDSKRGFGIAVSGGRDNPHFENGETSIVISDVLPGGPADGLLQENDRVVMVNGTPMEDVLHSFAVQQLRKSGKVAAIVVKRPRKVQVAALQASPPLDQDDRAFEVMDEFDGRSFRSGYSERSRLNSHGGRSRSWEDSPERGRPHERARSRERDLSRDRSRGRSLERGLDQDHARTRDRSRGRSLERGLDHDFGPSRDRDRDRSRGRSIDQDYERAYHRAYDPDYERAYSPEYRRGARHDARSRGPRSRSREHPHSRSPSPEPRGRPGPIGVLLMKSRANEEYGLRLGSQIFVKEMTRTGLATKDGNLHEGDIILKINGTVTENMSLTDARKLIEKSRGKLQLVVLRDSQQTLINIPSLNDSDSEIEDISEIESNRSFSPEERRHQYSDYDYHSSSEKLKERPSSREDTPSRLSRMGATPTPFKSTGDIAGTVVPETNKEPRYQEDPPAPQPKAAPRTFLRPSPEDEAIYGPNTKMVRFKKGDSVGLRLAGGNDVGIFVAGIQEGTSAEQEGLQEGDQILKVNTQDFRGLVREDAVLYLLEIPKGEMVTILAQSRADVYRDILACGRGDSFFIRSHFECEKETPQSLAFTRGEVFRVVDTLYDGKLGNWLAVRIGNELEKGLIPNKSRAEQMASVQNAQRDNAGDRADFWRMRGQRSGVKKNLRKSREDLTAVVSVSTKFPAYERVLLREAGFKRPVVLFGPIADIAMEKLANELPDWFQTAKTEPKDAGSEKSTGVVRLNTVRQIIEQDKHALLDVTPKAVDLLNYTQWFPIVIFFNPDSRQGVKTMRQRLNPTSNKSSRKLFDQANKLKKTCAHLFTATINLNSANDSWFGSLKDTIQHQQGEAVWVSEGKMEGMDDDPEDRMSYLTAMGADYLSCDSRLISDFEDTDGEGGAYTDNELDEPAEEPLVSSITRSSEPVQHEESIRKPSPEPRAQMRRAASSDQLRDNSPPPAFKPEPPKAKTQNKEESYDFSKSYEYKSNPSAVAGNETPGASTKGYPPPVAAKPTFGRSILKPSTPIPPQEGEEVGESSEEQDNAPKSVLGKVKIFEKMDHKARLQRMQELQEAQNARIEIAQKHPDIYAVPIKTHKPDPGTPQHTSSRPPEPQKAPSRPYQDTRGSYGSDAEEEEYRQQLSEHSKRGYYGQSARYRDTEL
Summary of the method: (§1)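 Binding classes derive from A450 nm of bound biotin-tagged PL peptide. A score of 5 needs A450 above 4 in more than two repeats.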

[2] = tested on: PDZ protein (GST-PDZ fusion)
Summary of the method: as §1

[3] = biological target: T2, PDZ protein (GST-PDZ fusion) (Homo sapiens, UniProt Q07157)
T2 construct: made in house; host or cells: E. coli (DH5alpha, BL21 or JM109)
Summary of the method: as §1

[4] = biological target: T3, PDZ protein (GST-PDZ fusion) (Homo sapiens, UniProt O15085); settings: PDZ KIAA0380, PDZ Domain 1
T3 construct: made in house; host or cells: E. coli (DH5alpha, BL21 or JM109)
Summary of the method: as §1

[5] = biological target: T4, PDZ protein (GST-PDZ fusion) (Homo sapiens, UniProt O15018); settings: PDZ AIPC, PDZ Domain 1
T4 construct: made in house; host or cells: E. coli (DH5alpha, BL21 or JM109)
Summary of the method: as §1

[6] = biological target: T5, PDZ protein (GST-PDZ fusion) (Homo sapiens, UniProt Q6P0Q8)
T5 construct: made in house; host or cells: E. coli (DH5alpha, BL21 or JM109)
Summary of the method: as §1

[7] = biological target: T6, PDZ protein (GST-PDZ fusion) (Homo sapiens, UniProt Q9Y2H9); settings: PDZ KIAA0973, PDZ Domain 1
T6 construct: made in house; host or cells: E. coli (DH5alpha, BL21 or JM109)
Summary of the method: as §1

[8] = biological target: T7, PDZ protein (GST-PDZ fusion) (Homo sapiens, UniProt Q02410)
T7 construct: made in house; host or cells: E. coli (DH5alpha, BL21 or JM109)
T7 sequence (Q02410 1-837): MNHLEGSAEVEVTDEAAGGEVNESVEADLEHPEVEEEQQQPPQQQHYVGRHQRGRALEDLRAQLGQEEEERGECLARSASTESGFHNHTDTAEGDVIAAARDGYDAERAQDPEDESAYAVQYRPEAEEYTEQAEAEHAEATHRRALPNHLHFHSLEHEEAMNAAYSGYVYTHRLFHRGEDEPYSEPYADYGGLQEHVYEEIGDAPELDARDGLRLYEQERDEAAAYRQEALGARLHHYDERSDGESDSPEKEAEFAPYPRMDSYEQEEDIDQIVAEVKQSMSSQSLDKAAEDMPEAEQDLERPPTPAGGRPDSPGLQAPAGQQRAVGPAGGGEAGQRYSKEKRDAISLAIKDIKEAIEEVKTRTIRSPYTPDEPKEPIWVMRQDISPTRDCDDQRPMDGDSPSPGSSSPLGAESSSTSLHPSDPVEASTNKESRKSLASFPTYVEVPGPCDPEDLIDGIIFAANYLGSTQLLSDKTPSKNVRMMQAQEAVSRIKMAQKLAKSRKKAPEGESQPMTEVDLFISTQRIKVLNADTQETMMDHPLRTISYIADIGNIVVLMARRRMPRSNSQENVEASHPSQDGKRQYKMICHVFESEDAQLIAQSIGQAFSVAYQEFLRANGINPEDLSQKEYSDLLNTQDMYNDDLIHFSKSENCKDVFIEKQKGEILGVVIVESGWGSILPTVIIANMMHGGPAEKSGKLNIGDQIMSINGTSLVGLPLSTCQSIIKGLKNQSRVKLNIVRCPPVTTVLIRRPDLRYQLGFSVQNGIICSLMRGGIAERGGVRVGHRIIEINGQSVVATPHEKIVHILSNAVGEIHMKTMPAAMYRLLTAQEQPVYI
Summary of the method: as §1

[9] = biological target: T8, PDZ protein (GST-PDZ fusion) (Homo sapiens, UniProt Q13796); settings: PDZ hAPXL, PDZ Domain 1
T8 construct: made in house; host or cells: E. coli (DH5alpha, BL21 or JM109)
Summary of the method: as §1

[10] = biological target: T9, PDZ protein (GST-PDZ fusion) (Homo sapiens, UniProt O75970); settings: PDZ MUPP-1, PDZ Domain 10
T9 construct: made in house; host or cells: E. coli (DH5alpha, BL21 or JM109)
Summary of the method: as §1

[11] = biological target: T10, PDZ protein (GST-PDZ fusion) (Homo sapiens, UniProt Q8NI35); settings: PDZ INADL, PDZ Domain 8
T10 construct: made in house; host or cells: E. coli (DH5alpha, BL21 or JM109)
Summary of the method: as §1

[12] = biological target: T11, PDZ protein (GST-PDZ fusion) (Homo sapiens, UniProt P50479); settings: PDZ LIM RIL, PDZ Domain 1
T11 construct: made in house; host or cells: E. coli (DH5alpha, BL21 or JM109)
T11 sequence (P50479 1-330): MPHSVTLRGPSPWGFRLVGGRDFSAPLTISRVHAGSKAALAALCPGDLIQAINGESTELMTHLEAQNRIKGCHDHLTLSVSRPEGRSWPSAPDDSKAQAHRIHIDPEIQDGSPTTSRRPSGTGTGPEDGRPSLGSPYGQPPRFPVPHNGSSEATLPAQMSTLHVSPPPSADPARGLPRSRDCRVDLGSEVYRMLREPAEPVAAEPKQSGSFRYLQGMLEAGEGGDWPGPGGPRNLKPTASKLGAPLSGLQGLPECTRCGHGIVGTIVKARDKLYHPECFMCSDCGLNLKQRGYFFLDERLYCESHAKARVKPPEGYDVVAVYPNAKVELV
Summary of the method: as §1

[13] = biological target: T12, PDZ protein (GST-PDZ fusion) (Homo sapiens, UniProt Q9P202); settings: PDZ KIAA1526, PDZ Domain 1
T12 construct: made in house; host or cells: E. coli (DH5alpha, BL21 or JM109)
T12 sequence (Q9P202 1-907): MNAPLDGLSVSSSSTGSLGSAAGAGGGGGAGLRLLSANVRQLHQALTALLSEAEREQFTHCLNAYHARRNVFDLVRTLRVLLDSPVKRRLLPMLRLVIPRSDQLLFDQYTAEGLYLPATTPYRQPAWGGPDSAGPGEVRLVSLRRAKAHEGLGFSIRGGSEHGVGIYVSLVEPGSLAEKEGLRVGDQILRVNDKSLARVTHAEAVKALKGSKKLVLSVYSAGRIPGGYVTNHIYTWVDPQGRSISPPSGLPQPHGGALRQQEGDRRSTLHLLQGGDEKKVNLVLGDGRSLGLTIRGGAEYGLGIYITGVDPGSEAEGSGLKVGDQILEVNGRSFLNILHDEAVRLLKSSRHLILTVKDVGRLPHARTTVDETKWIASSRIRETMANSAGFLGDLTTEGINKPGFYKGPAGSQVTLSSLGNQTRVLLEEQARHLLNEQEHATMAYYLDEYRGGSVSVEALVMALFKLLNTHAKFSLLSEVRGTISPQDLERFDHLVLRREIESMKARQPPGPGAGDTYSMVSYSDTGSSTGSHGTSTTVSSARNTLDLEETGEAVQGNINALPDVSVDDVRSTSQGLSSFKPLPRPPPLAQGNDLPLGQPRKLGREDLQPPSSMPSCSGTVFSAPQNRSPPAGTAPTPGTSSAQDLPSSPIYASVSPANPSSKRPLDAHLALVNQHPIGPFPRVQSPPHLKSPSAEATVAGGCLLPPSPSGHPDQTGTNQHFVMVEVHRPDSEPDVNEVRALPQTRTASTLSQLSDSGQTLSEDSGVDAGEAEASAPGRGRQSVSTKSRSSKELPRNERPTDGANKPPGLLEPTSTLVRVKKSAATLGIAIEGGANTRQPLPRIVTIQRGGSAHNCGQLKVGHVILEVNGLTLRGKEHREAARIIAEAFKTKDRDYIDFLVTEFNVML
Summary of the method: as §1

[14] = biological target: T13, PDZ protein (GST-PDZ fusion) (Homo sapiens, UniProt Q12959); settings: PDZ DLG1, PDZ Domain 1, 2
T13 construct: made in house; host or cells: E. coli (DH5alpha, BL21 or JM109)
Summary of the method: as §1

[15] = biological target: T14, PDZ protein (GST-PDZ fusion) (Homo sapiens, UniProt Q5T2W1); settings: PDZ PDZK1, PDZ Domain 2, 3, 4
T14 construct: made in house; host or cells: E. coli (DH5alpha, BL21 or JM109)
T14 sequence (Q5T2W1 1-519): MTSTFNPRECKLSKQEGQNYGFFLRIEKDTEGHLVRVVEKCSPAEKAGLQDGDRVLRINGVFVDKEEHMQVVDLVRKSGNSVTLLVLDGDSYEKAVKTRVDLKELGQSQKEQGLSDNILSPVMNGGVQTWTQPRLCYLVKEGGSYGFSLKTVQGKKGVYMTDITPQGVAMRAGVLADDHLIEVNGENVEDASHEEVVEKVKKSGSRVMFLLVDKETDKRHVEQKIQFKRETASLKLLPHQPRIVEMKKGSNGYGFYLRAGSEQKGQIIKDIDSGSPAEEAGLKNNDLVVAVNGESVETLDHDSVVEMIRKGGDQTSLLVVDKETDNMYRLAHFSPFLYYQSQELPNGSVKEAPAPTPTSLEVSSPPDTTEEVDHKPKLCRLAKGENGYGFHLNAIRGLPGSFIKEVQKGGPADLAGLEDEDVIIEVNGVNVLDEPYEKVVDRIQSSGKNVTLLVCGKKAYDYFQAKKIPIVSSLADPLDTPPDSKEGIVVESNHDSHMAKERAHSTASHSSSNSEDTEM
Summary of the method: as §1

T5 sequence (Q6P0Q8 whole entry, the tested form may be a part): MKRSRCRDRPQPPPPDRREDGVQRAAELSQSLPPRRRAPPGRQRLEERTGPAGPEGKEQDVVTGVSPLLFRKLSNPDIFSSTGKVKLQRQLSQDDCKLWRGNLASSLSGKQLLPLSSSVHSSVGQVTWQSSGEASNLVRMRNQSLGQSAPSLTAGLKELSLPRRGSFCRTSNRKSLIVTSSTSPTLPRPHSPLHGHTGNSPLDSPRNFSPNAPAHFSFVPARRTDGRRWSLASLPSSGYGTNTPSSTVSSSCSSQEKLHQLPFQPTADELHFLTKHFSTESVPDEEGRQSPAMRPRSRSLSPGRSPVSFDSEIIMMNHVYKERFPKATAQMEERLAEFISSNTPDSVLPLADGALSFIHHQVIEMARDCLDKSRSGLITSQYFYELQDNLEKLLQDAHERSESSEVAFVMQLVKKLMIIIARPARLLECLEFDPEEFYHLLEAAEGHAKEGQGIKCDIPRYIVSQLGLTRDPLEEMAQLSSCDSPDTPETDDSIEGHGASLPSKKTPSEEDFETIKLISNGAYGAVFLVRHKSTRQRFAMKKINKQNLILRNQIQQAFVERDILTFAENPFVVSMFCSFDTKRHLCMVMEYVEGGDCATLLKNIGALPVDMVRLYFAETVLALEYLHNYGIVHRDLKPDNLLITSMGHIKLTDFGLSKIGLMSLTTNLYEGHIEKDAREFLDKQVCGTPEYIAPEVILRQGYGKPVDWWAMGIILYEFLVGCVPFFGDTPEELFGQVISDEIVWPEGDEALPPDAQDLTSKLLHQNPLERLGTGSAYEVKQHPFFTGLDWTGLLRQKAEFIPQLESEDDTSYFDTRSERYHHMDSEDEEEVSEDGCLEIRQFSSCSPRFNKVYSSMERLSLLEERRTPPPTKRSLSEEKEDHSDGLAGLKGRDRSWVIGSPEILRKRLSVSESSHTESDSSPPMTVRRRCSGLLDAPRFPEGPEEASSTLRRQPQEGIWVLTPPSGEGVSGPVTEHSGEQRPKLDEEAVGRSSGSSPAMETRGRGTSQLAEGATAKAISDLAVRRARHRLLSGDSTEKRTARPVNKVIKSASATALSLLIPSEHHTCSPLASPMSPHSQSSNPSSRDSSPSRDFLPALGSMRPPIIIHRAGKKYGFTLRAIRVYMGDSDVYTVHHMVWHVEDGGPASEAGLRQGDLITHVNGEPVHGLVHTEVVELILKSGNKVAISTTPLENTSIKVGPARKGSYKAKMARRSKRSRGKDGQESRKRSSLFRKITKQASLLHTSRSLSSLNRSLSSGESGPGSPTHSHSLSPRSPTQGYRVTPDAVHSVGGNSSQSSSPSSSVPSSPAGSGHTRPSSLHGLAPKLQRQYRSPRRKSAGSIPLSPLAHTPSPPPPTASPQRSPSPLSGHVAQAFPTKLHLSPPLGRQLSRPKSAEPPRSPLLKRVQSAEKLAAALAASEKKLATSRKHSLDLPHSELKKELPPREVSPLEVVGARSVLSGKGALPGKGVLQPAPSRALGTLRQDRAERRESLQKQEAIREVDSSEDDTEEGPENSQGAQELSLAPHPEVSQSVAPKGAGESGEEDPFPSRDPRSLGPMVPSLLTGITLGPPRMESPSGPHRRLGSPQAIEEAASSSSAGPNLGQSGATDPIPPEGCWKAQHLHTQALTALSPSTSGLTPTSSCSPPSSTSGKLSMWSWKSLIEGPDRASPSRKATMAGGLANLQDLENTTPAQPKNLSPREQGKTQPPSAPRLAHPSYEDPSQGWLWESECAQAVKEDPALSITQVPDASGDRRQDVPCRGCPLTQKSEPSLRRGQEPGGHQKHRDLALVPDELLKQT
T2 sequence (Q07157 whole entry, the tested form may be a part): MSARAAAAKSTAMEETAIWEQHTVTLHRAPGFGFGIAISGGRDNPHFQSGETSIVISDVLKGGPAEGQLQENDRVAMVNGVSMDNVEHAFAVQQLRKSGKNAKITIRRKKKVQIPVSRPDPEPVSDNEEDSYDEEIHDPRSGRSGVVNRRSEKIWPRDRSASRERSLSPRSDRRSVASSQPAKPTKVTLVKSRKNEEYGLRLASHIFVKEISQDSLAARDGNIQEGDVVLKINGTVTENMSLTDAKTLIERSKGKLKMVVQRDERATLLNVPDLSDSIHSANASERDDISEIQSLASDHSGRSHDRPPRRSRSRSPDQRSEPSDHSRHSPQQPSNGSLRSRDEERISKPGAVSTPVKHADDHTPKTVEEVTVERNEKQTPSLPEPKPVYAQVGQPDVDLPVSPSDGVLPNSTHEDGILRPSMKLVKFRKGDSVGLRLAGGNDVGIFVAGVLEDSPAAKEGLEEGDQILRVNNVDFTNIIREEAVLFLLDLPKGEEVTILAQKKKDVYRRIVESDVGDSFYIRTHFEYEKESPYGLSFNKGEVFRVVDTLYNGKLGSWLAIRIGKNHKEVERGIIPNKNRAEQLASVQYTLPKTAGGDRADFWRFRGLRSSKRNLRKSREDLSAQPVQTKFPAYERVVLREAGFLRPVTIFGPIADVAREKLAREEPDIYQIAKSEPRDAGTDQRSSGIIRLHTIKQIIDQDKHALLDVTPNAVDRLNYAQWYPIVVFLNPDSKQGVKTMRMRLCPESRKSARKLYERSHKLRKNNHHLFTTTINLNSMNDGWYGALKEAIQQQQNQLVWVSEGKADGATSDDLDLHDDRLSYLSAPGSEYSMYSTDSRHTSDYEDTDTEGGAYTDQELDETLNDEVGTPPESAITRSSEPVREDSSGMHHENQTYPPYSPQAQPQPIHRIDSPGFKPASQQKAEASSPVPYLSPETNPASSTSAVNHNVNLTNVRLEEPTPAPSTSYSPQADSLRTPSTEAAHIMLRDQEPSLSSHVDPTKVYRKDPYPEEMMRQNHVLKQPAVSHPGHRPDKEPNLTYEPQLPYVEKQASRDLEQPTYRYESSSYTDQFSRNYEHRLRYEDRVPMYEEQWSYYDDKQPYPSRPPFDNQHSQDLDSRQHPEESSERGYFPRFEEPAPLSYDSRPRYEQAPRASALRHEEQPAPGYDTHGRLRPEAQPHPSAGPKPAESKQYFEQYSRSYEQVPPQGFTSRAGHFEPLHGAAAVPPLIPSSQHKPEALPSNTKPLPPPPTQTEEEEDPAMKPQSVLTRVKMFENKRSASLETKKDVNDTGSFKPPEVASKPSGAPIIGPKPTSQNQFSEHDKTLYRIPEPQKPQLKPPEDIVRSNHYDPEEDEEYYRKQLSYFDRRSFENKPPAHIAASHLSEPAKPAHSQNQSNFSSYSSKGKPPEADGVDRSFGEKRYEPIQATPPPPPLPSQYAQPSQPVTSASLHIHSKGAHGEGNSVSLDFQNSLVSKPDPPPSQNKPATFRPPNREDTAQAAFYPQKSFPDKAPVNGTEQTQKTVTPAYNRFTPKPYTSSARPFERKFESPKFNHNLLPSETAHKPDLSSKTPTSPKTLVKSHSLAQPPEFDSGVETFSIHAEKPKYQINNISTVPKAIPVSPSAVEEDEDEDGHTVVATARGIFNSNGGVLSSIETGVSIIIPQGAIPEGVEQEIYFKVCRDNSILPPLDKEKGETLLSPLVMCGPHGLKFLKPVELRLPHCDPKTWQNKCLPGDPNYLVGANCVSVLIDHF
T6 sequence (Q9Y2H9 whole entry, the tested form may be a part): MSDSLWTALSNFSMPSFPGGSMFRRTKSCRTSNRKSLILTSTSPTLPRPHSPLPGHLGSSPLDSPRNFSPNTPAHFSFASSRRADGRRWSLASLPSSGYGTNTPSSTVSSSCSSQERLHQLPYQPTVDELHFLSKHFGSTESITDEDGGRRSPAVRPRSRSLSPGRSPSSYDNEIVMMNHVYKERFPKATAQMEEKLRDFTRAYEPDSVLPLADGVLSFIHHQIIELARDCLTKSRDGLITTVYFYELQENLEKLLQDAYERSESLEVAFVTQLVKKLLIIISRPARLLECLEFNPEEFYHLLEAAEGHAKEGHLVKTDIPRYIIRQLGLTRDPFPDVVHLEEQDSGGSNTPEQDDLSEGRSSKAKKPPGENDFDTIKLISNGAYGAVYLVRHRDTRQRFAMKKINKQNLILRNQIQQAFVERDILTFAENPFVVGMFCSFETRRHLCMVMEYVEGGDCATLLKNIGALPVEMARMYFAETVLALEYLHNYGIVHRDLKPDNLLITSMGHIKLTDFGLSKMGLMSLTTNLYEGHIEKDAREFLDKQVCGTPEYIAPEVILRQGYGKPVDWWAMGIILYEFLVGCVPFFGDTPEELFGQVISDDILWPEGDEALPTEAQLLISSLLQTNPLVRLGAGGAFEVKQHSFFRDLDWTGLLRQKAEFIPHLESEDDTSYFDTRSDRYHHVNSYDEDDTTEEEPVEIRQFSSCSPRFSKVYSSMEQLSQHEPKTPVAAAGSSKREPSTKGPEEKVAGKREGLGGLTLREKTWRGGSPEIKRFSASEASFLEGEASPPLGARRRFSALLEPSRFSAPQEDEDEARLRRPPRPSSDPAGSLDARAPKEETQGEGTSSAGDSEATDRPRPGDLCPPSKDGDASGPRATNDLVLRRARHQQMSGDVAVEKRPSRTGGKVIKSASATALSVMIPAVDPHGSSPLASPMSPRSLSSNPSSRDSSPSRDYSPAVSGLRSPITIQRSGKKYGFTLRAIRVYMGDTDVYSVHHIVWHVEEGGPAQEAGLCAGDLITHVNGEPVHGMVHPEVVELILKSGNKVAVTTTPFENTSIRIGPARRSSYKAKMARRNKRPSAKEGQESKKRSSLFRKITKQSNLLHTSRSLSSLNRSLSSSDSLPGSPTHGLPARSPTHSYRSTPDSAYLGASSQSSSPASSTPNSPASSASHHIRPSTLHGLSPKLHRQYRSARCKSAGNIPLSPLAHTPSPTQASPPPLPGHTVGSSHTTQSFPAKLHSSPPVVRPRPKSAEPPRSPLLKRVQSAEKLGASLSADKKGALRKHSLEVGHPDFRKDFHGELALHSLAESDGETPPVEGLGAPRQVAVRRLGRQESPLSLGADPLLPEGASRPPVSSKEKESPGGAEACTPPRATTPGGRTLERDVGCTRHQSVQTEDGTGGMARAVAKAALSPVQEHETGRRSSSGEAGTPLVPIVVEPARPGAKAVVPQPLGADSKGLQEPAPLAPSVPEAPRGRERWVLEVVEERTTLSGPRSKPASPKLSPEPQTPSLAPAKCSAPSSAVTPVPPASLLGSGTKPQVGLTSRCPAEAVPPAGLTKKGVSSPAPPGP

Substance: SSKSKSSEESQTFFGLYKL (Biotin-SSKSKSSEESQTFFGLYKL) [Fas Ligand]
Classification [4]: 3 (A450 nm 2-3)
Classification [5]: 2 (A450 nm 1-2)
Classification ([6]; PDZ KIAA807): 5 (A450 nm of 4 more than 2× repeated)
Classification ([6]; PDZ KIAA0807(S), PDZ Domain 1): 5 (A450 nm of 4 more than 2× repeated)
Classification [7]: 2 (A450 nm 1-2)
Classification ([8]; PDZ Mint 1, PDZ Domain 1, 2): 4 (A450 nm 3-4)
Classification [9]: 2 (A450 nm 1-2)

Substance: INSVGSTASSSQPLLVHDDV (Biotin-INSVGSTASSSQPLLVHDDV) [c-kit receptor]
Classification [10]: 1 (A450 nm 0-1)
Classification [11]: 1 (A450 nm 0-1)
Classification [12]: 1 (A450 nm 0-1)
Classification ([8]; PDZ Mint 1, PDZ Domain 2): 1 (A450 nm 0-1)

Substance: SSR4_HUMAN (EALQPEPGRKRIPLTRTTTF)
Classification [14]: 1 (A450 nm 0-1)
Classification [15]: 1 (A450 nm 0-1)
Classification ([6]; PDZ KIAA807): 1 (A450 nm 0-1)
Classification ([8]; PDZ Mint 1, PDZ Domain 1, 2): 1 (A450 nm 0-1)
Classification ([2]; PDZ BAI-1, PDZ Domain 4): 1 (A450 nm 0-1)
Classification ([2]; PDZ BAI-1, PDZ Domain 5): 1 (A450 nm 0-1)

More lines, main results first:

Classification [1]: 1 (A450 nm 0-1)
Classification ([3]; PDZ ZO-1, PDZ Domain 2): 2 (A450 nm 1-2)
Substance: PSSRASSRASSRPRPDDLEI (Biotin-PSSRASSRASSRPRPDDLEI) [CX43]
PDZ proteins bound by the PL (TABLE 7) ([2]; as cited in the text from TABLE 7): ZO-2 and ZO-1

Classification [1]: 1 (A450 nm 0-1)
Classification [13]: 1 (A450 nm 0-1)
Classification ([3]; PDZ ZO-1, PDZ Domain 1): 1 (A450 nm 0-1)
Classification ([3]; PDZ ZO-1, PDZ Domain 2): 1 (A450 nm 0-1)
Substance: TEGNESSEATSPVNAIYSLA (Biotin-TEGNESSEATSPVNAIYSLA) [neurofascin (chicken)]
